From the supplement of paper PMC10724198
± gives the standard deviation of the averaged measurements.

Tests used:
Saccharomyces cerevisiae [1] = assay: protein stability index of tFT-peptide fusion (C-terminal peptide) (PSI (0-1 scale)); higher = more stable (slower turnover)
Method: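 MPS profiling in S. cerevisiae of the tFT-X12 degron library: putative degron peptides plus stable controls, 12 aa, fused to the C-terminus of a sfGFP-mCherry timer. Cells are FACS-sorted into 8 mCherry/sfGFP bins and deep-sequenced. PSI runs from 0 (unstable) to 1 (stable). Backgrounds are wild type, das1Δ and doa10Δ at 30 °C, and wild type, das1Δ, cdc34-1 and cdc53-1 at 37 °C; 2-3 technical replicates each.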

Saccharomyces cerevisiae [2] = assay: as above; settings: genetic background: wild type; temperature: 30 C
[3] = genetic background: cdc34-1, temperature: 37 C
[4] = genetic background: cdc53-1, temperature: 37 C
[5] = genetic background: das1 deletion, temperature: 30 C
[6] = genetic background: das1 deletion, temperature: 37 C
[7] = genetic background: doa10 deletion, temperature: 30 C
[8] = genetic background: wild type, temperature: 30 C
[9] = genetic background: wild type, temperature: 37 C
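Note: PSI is a weighted mean of sequencing reads over stability bins, variants kept only with over 10 reads, mCherry proximal and sfGFP distal, peptide attached via GGGS linker.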

| Sequence | protein stability index (Saccharomyces cerevisiae [1]; [3]) | protein stability index (Saccharomyces cerevisiae [1]; [4]) | protein stability index (Saccharomyces cerevisiae [1]; [5]) | protein stability index (Saccharomyces cerevisiae [1]; [6]) | protein stability index (Saccharomyces cerevisiae [1]; [7]) | protein stability index (Saccharomyces cerevisiae [1]; [8]) | protein stability index (Saccharomyces cerevisiae [1]; [9]) | protein stability index (Saccharomyces cerevisiae [2]) |
| --- | --- | --- | --- | --- | --- | --- | --- | --- |
| CGSLDLPHQCLL | 0.7247 ± 0.0066 | 0.7844 ± 0.0062 | 0.677 ± 0.0093 | 0.7545 ± 0.0062 | 0.691 ± 0.048 | 0.693 ± 0.01 | 0.774 ± 0.0033 | 0.744 ± 0.059 |
| TDFICLLWLLHW | 0.552 ± 0.035 | 0.535 ± 0.058 | 0.422 ± 0.02 | 0.5698 ± 0.0043 | 0.3864 ± 0.0017 | 0.41 ± 0.032 | 0.535 ± 0.014 | 0.565 ± 0.12 |
| VRNKFSYVLRLN | 0.488 ± 0.024 | 0.678 ± 0.014 | 0.615 ± 0.016 | 0.747 ± 0.0094 | 0.0804 ± 0.019 | 0.11 ± 0.029 | 0.138 ± 0.037 | 0.179 ± 0.016 |
| GGGVGGAVVLFW | 0.651 ± 0.023 | 0.764 ± 0.029 | 0.527 ± 0.016 | 0.718 ± 0.0021 | 0.528 ± 0.01 | 0.565 ± 0.027 | 0.716 ± 0.0033 | 0.408 ± 0.013 |
| VCWCVVVLEFGL | 0.15 ± 0.049 | 0.367 ± 0.15 | 0.197 ± 0.031 | 0.363 ± 0.0062 | 0.168 ± 0.012 | 0.185 ± 0.029 | 0.267 ± 0.044 | 0.313 ± 0.013 |
| TVIVCCHLEVVY | 0.0776 ± 0.07 | 0.0367 ± 0.024 | 0.0294 ± 0.014 | 0.0693 ± 0.013 | 0.0254 ± 0.013 | 0.0249 ± 0.0089 | 0.0685 ± 0.023 | 0.0135 ± 0.0057 |
| LRVPCPPCCVFV | 0.568 ± 0.049 | 0.69936 ± 0.0003 | 0.616 ± 0.016 | 0.727 ± 0.0099 | 0.33 ± 0.015 | 0.334 ± 0.009 | 0.4302 ± 0.0026 | 0.398 ± 0.027 |
| ACGGGSNVHRAG | 0.665 ± 0.028 | 0.7248 ± 0.0067 | 0.657 ± 0.019 | 0.767 ± 0.021 | 0.662 ± 0.045 | 0.66 ± 0.018 | 0.75211 ± 0.00044 | 0.747 ± 0.012 |
| IRVLACFLFAVS | 0.202 ± 0.016 | 0.305 ± 0.017 | 0.172 ± 0.0094 | 0.32 ± 0.0072 | 0.095 ± 0.0081 | 0.12 ± 0.022 | 0.247 ± 0.025 | 0.17 ± 0.01 |
| FSYLSFLPSLAA | 0.545 ± 0.049 | 0.562 ± 0.034 | 0.466 ± 0.031 | 0.599 ± 0.017 | 0.442 ± 0.0053 | 0.468 ± 0.0066 | 0.5654 ± 0.0021 | 0.527 ± 0.048 |
| CRAAMYSFFLNF | 0.674 ± 0.063 | 0.75 ± 0.017 | 0.651 ± 0.037 | 0.7584 ± 0.0043 | 0.236 ± 0.0046 | 0.299 ± 0.0089 | 0.529 ± 0.022 | 0.427 ± 0.025 |
| AVLFAPPLSSNF | 0.712 ± 0.03 | 0.78169 ± 0.00024 | 0.64 ± 0.014 | 0.7729 ± 0.0067 | 0.657 ± 0.026 | 0.6489 ± 0.0039 | 0.739 ± 0.0078 | 0.729 ± 0.052 |
| FSVTTLTILCLR | 0.305 ± 0.017 | 0.329 ± 0.011 | 0.273 ± 0.029 | 0.394 ± 0.017 | 0.49 ± 0.061 | 0.277 ± 0.02 | 0.382 ± 0.0086 | 0.3497 ± 0.0014 |
| SFLVFLYFFMVF | 0.3637 ± 0.0027 | 0.429 ± 0.058 | 0.335 ± 0.038 | 0.449 ± 0.02 | 0.316 ± 0.016 | 0.303 ± 0.034 | 0.446 ± 0.031 | 0.379 ± 0.013 |
| LFVFTYPFLSWL | 0.617 ± 0.011 | 0.66 ± 0.011 | 0.591 ± 0.042 | 0.6963 ± 0.0031 | 0.552 ± 0.028 | 0.514 ± 0.016 | 0.615 ± 0.0094 | 0.478 ± 0.0061 |
| GNSAGSVGGGRF | 0.695 ± 0.022 | 0.738 ± 0.02 | 0.627 ± 0.012 | 0.7387 ± 0.0012 | 0.638 ± 0.024 | 0.652 ± 0.014 | 0.7254 ± 0.0028 | 0.705 ± 0.038 |
| LLYHFCLFFFRE | 0.521 ± 0.044 | 0.592 ± 0.037 | 0.462 ± 0.024 | 0.619 ± 0.014 | 0.441 ± 0.015 | 0.449 ± 0.011 | 0.558 ± 0.053 | 0.513 ± 0.044 |
| MSVLAFVCCLSG | 0.3532 ± 0.0026 | 0.311 ± 0.0052 | 0.289 ± 0.033 | 0.393 ± 0.022 | 0.2478 ± 0.0014 | 0.268 ± 0.027 | 0.3585 ± 0.0029 | 0.336 ± 0.0033 |
